Source: US20040071707A1, “Modulation of cell growth” (priority 2000, published 2004)

Columns and labels:
HVSMC = HVSMC growth (proliferation assay); format: cell-based, Human
Method: (A and B). HUVEC or HVSMC cultures were incubated with increasing concentrations of PMSF inactivated K2P (K2P-PMSF) or control treated K2P either in the absence (A) or presence (B) of 10 ng/mL bFGF at the concentrations indicated. Angiostatin was included as a positive control for inhibition of bFGF mediated cell growth. HUVEC results represent mean of at least three independent experiments with three different batches of HUVEC. Experiments with HVSMC were repeated twice. (C and D). HUVEC were treated with 100 μg/mL K2P-PMSF and increasing concentrations of either anti-kringle 2 antibody, 7VPA (C) or rsctPA (D) for four days as indicated. Control wells contained M199 and 2% FBS alone. Data represent mean±SE of duplicate experiments with two different batches of HUVEC. […]
3×10^3 cells were plated in 96-well plates and allowed to attach overnight. […] After 4 days of incubation cell number was quantified colorimetrically by the addition of 20 μL CellTiter 96 AQueous One Solution Cell Proliferation Assay (Promega) at 492 nm and 620 nm reference filter. Background absorbance was determined with substrate alone and subtracted from all wells.

HUVEC = assay: In vitro endothelial cell proliferation assay; format: cell-based, Human; conditions: for bFGF induced EC growth: 10 ng/mL bFGF, non-toxic doses (<40 μg/mL) for K2P fragments; for effect on basal HUVEC/EC growth (substance alone): M199 with 2% FBS, 4 days, colorimetric
Method: Human umbilical vein endothelial cells (HUVEC) were purchased from Clonetics or isolated from umbilical vein cords by mild collagenase treatment as described and cultured in M199 with Earle's salts (Sigma) with 20% heat inactivated fetal bovine serum (Sigma), 100 IU/mL penicillin 100 μg/mL streptomycin (Gibco), 250 ng/mL fungizone (Gibco), 2 mM glutamine (Gibco), 5 IU/mL heparin (Sigma) and 50 μg/mL ECGS (Technoclone, Vienna, Austria). Human vascular smooth muscle cells (HVSMC) were isolated as described.
3×10^3 cells were plated in 96-well plates and allowed to attach overnight. Growth was arrested by incubation with 100 μL reduced growth medium (M199 with 2% FBS) for 24 h. Thereafter anti-tPA antibodies and other reagents were added to wells. K2P (Reteplase), anti-kringle 2 (7VPA) and anti-finger/EGF antibodies (3VPA and 6VPA) were a gift from Technoclone, Vienna, Austria. Anti-kringle 1 (PAM-2), anti-kringle 2 (ESP1) and anti-protease (374B and ESP2) antibodies were purchased from American Diagnostica, Alpha Labs, UK. D-mannitol and LY294002 were obtained from Sigma. VEGF121 and bFGF were purchased from R&D Systems Inc., UK. Recombinant single chain tPA (rsctPA) was obtained from Boehringher Ingelheim. The mutant alatPA was kindly provided by Prof. Roger Lijnen (Center for Molecular and Vascular Biology, Leuven, Belgium). Aprotinin was purchased from Boehringer Mannheim. The tPA peptides (tPA I and tPA II) corresponding to residues 7-17 and 15-26 respectively were synthesized by the Clinical Sciences Centre peptide synthesis facility at Hammersmith and the ICRF peptide unit. Rp-cAMPS and Lavendustin A were obtained from Calbiochem, UK. After 4 days of incubation cell number was quantified colorimetrically by the addition of 20 μL CellTiter 96 AQueous One Solution Cell Proliferation Assay (Promega) at 492 nm and 620 nm reference filter. Background absorbance was determined with substrate alone and subtracted from all wells.
HUVEC were plated at 1×10^5 cells in 12 well plates overnight. Medium was replaced with reduced growth medium overnight followed by addition of anti-K2 antibody. Control wells contained M199 and 2% FBS alone. After 3 days incubation cells were counted in a hemocytometer.

| Molecule | HVSMC growth in the presence of bFGF (HVSMC; 10 ng/mL bFGF) | basal HVSMC growth, % of control (HVSMC; highest concentration used (100 μg/mL)) | bFGF induced EC growth (HUVEC) | concentration giving 50% inhibition (HUVEC; HUVEC growth, bFGF 10 ng/mL (FIG. 4B)) [µg/mL] | effect on basal HUVEC/EC growth (substance alone) (HUVEC) | VEGF stimulated HUVEC growth (HUVEC; 10 ng/mL VEGF) |
| --- | --- | --- | --- | --- | --- | --- |
| K2P-PMSF: proteolytically inactivated K2P (protease domain inactivated with PMSF) (protein) SYQVICRDEKTQMIYQQHQSWLRPVLRSNRVEYCWCNSGRAQCHSVPVKSCSEPRCFNGGTCQQALYFSDFVCQCPEGFAGKCCEIDTRATCYEDQGISYRGTWSTAESGAECTNWNSSALAQKPYSGRRPDAIRLGLGNHNYCRNPDRDSKPWCYVFKAGKYSSEFCSTPACSEGNSDCYFGNGSAYRGTHSLTESGASCLPWNSMILIGKVYTAQNPSAQALGLGKHNYCRNPDGDAKPWCHVLKNRRLTWEYCDVPSCSTCGLRQYSQPQFRIKGGLFADIASHPWQAAIFAKHRRSPGERFLCGGILISSCWILSAAHCFQERFPPHHLTVILGRTYRVVPGEEEQKFEVEKYIVHKEFDDDTYDNDIALLQLKSDSSRCAQESSVVRTVCLPPADLQLPDWTECELSGYGKHEALSPFYSERLKEAHVRLYPSSRCTSQHLLNRTVTDNMLCAGDTRSGGPQANLHDACQGDSGGPLVCLNDGRMTLVGIISWGLGCGQKDVPGVYTKVTNYLDWIRDNMRP | No inhibition | 65 % of control | completely inhibited | 30 | inhibited | – |
| rsctPA: Recombinant single chain tPA (protein) SYQVICRDEKTQMIYQQHQSWLRPVLRSNRVEYCWCNSGRAQCHSVPVKSCSEPRCFNGGTCQQALYFSDFVCQCPEGFAGKCCEIDTRATCYEDQGISYRGTWSTAESGAECTNWNSSALAQKPYSGRRPDAIRLGLGNHNYCRNPDRDSKPWCYVFKAGKYSSEFCSTPACSEGNSDCYFGNGSAYRGTHSLTESGASCLPWNSMILIGKVYTAQNPSAQALGLGKHNYCRNPDGDAKPWCHVLKNRRLTWEYCDVPSCSTCGLRQYSQPQFRIKGGLFADIASHPWQAAIFAKHRRSPGERFLCGGILISSCWILSAAHCFQERFPPHHLTVILGRTYRVVPGEEEQKFEVEKYIVHKEFDDDTYDNDIALLQLKSDSSRCAQESSVVRTVCLPPADLQLPDWTECELSGYGKHEALSPFYSERLKEAHVRLYPSSRCTSQHLLNRTVTDNMLCAGDTRSGGPQANLHDACQGDSGGPLVCLNDGRMTLVGIISWGLGCGQKDVPGVYTKVTNYLDWIRDNMRP | – | – | – | – | neither rsctPA nor alatPA could stimulate EC growth | – |
| kringle 2: kringle 2 domain of tPA purified from K2P by limited elastase digestion and lysine-Sepharose (protein) CYFGNGSAYRGTHSLTESGASCLPWNSMILIGKVYTAQNPSAQALGLGKHNYCRNPDGDAKPWCHVLKNRRLTWEYCDVPSC | – | – | significantly inhibited | – | significantly inhibited | significantly inhibited |
